# Legend:
# Assay in all cases: SEC; gel filtration elution profile of wild-type and point mutants of SmTPI; conditions not shown
# [1] = target: SmTPI-C221D (Schistosoma mansoni)
# [2] = target: SmTPI-C221K (Schistosoma mansoni)
# [3] = target: SmTPI-C221S (Schistosoma mansoni)
# [4] = target: SmTPI-C221Y (Schistosoma mansoni)
substance,measurement,setting,value
SmTPI-C221D (enzyme),stoichiometry N,[1],2
SmTPI-C221K (enzyme),stoichiometry N,[2],2
SmTPI-C221S (enzyme),stoichiometry N,[3],2
SmTPI-C221Y (enzyme),stoichiometry N,[4],2

# From publication PMC6980832, “Crystal structures of Triosephosphate Isomerases from Taenia solium and Schistosoma mansoni provide insights for vaccine rationale and drug design against helminth parasites” (PLoS Neglected Tropical Diseases, 2020)
